We go through 1 molecule from article PMC5115946 (Journal of molecular biology, 2016).

For data set [1], the target named is UBCH5B (ubiquitin-conjugating enzyme E2 D2) (human, UniProt P62837 1-147). Briefly: AUC.
The data set “AUC” deals with the molecule itself. Briefly: AUC.

B1: RING finger protein 4 (RNF4) (enzyme, human, UniProt P78317 1-190, looked up)
chain: MSTRKRRGGAINSRQAQKRTREATSTPEISLEAEPIELVETAGDEIVDLTCESLEPVVVDLTHNDSVVIVDERRRPRRNARRLPQDHADSCVVSSDDEELSRDRDVYVTTHTPRNARDEGATGLRPSGTVSCPICMDGYSEIVQNGRLIVSTECGHVFCSQCLRDSLKNANTCPTCRKKINHKRYHPIYI
As usually defined, the Kd is the constant that tells how readily two partners part at equilibrium. The term stoichiometry N denotes a count of units in the complex or per binding partner. B1 came in with a dissociation constant Kd in data set [1] of 15 µM. Further, in “AUC”, the “stoichiometry N” value turned out to be 2.
